How the values were obtained:
[1] = biological target: the molecule itself; assay: SEC; individual ScpB homologue alone on Superdex 200 Increase 10/300 GL; 20 mM Tris-HCl pH 7.5, 100 mM NaCl, 1 mM DTT, 4°C; elution compared with 158 kDa and 43 kDa markers
[2] = biological target: the molecule itself; assay: crystal structure; SeMet-substituted full-length PYCH_12850; 35% pentaerythritol propoxylate, 0.1 M MES pH 5.5, 0.4 M NaCl, 22°C
[3] = biological target: T1, (His)10-MBP-tagged Thermococcus onnurineus ScpA (TON_1071) (Thermococcus onnurineus, UniProt B6YWU6); assay: His pull-down (Ni-NTA) and size-exclusion chromatography
T1 chain: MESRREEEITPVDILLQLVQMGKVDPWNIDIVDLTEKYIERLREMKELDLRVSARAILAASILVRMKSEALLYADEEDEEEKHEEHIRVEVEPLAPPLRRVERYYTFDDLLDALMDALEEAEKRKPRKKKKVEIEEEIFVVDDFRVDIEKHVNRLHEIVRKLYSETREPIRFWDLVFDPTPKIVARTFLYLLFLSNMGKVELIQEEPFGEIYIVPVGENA

B1: Metli_0606 (sole ScpB homologue of Methanofollis liminatans), untagged (natural protein, UniProt J1ANV5 1-161, looked up)
chain: MVDRTAMLEAALFVADAPVSYGDLAKIFGIKPGEVPALAQELSGRLSARSSPLEVIDSGESVFMVLKEEYAVLVYPVMRPEISRAVLRTLSVIAYRQPILQSDLIEIRGGGAYAHVEELVKRDLVARYRSGRSYLLQTTPEFSRYFKTSDLVGGQGRLDID
notes: ScpB homologue Metli_0606 of Methanofollis liminatans; untagged in the assays; also called ScpB homologue Metli_0606; source: E. coli BL21 (DE3) RIPL, purified
stoichiometry N [1]: 2

B2: Selenomethionine-substituted full-length PYCH_12850 (crystallised) (natural protein, Pyrococcus yayanosii, UniProt F8AFC4 1-192, looked up)
chain: MGLLEDKALVEAALFVAGRPLSLKELSKALGIKSLEYLEKLIELIASEYEERKSAIEVVKVLGDKWVMQLKQEYSQKVIHLMPKPELRAGELKTLALIAYLQPVEQSKIIKLRGSQAYEHIKKLLEMGLIYAEPYERTKLLGTTQKFAELYGFPENDPELIKEAFKKVIHSEYADLMEKIEKNNRKDKREEA
modifications: selenomethionine in place of methionine
notes: ScpB homologue PYCH_12850 of Pyrococcus yayanosii, full length; homodimer in the crystal; also called PYCH_12850 (SeMet); ScpB from Pyrococcus yayanosii; source: E. coli B834 (DE3) RIL, purified
binding result [2]: binds

B3: TON_1955 (putative Thermococcus onnurineus ScpB), untagged (protein)
chain: MGLLEDKALVEAALFVSGRPLSIKELSRALGIRSLDYLEKLIELIAAEYAERKSAIEVVRVLGDKYVMQVKQEYSQRVVHLMPRPDLRTGELKTLALIAYLQPIEQSKLVKLRGSQAYEHIRKLLEMGLIYAEPYERTKLLGTTPKFAELYGFPENDPMMIKEAFKKVVHAEYSDLIAKLEGKEEKEEMPQESEE
binding result [3]: no binding
